Consider one protein from FireProtDB (doi:10.1006/jmbi.1997.1365).

In general, Tm refers to the temperature at which the thermal transition is half complete.

For the data set the following is noted: Homo sapiens, pH 2.7, Thermal, DSC, glycine 0.05 M, reversible: yes, whole UniProt chain shown.

B1: Lysozyme C wild type, P61626 (protein)
chain: MKALIVLGLVLLSVTVQGKVFERCELARTLKRLGMDGYRGISLANWMCLAKWESGYNTRATNYNAGDRSTDYGIFQINSRYWCNDGKTPGAVNACHLSCSALLQDNIADAVACAKRVVRDPQGIRAWVAWRNRCQNRDVRQYVQGCGV
Take B1: the Tm came to 64.9 °C and the “heat capacity change of unfolding” value amounted to 1.58 kcal/mol/K. Besides, where the note is “64.9 °C”, the “heat capacity change of unfolding” value turned out to be 1.58 kcal/mol/K, the “unfolding enthalpy (calorimetric)” value was 114 kcal/mol and the “unfolding enthalpy (van 't Hoff)” value was 120 kcal/mol.
